Experiment: yeast display, Sf9 membrane polyspecificity reagent, FACS + sequencing; frameworks hold sequencing errors
Procedure, shortened: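 Synthetic nanobody libraries on Saccharomyces cerevisiae BJ5465 were galactose-induced for 36–48 hours, stained 1 hour at 4 °C with 10% biotinylated, detergent-solubilized Sf9 membrane reagent and enriched on streptavidin microbeads. FACS then separated cells into low and high (top ~1%) gates by anti-HA (expression) and streptavidin (reagent binding) fluorescence. Genes were colony-PCR amplified, MiSeq 2 × 250 sequenced and CDR-length filtered. A clone's polyreactivity label is that of its gate of origin.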

Sequence | polyreactivity (PSR sort gate)
QVHFVESGGGLVQAGGSLRLSSAASGRTFQYNAMGWYRQAPGKERELVARITWSGDSTYYADSVKGRFTISRDNAKNSVYLQMNSLKPEDTAVYYCNAGRRWRRTAYDYWGQGTQVTVSS | high polyreactivity
QVHHEETGGGIVQAGGSLRLSCAASGRIFDYIAMGWYRQAPGKERELVAAISQSGGSTYYADSVKGRFTISRDNAKNTVYLQMNSLKPEDTAVYYCAAFISRSRNEYWGQGTLVTVSS | high polyreactivity
QVHHVDSGGGLVQAGGTLRLSIPASGRTFQYYTMGWYRQPPGKERELVAAIRRGGSTYYADSVKGRFSISRDNAKNTVYLQLNILKPEDTAVYYCADLYAYSLTARGMEYWGQGTQVTVSS | high polyreactivity
QVHHVESAGRLVQAGGILRLICPASGFTFGHYVMGWYRQEPGKERELLAAITLSGGGTYYADSVKGRFTISRDNAKNTGYLQMNSLKPQDTAVYYCAAVGGDHAKITYSRYKVDYWGQGTQVTVSS | low polyreactivity
QVHHVESGGVLVQARVSLRLSCAASGIIIAYYAVGWYGQAPGKESELVAAITSGGSTSYADSVKGRFTISRDNAKNTVYLQMISLKPEDTAVYYCNTDPSGYESGYWGQGTQVTVSS | low polyreactivity
QVHIEDSGGGLLQAGGSLRLSCAATGRTFFYYAMGWYRQAPGKERELVAAISGRGGRTYYADSVKGRFTISRDNAINTVYLQMNSLKPEDTAVYFCGGDAGPLRYDYWGQGTQVTVSS | high polyreactivity
QVHIVESGGGLVQAGGSLRLSCAASGINFGRNVMGWYRQPPGKERELVAAISWSGGRTYYADSVKGRFTISRDNAKNTVYFQIKSLITEDTAVYDCNARTGYYTGQYDYWGQGSQVTVSS | high polyreactivity
QVHLEDSGGGLVQAGVILRLSSPASGSIFVYNAMGWYRPAPGKERELVAAISSSGGSTYYADSVKGRFTISRDNAKNTVYLQMNSLKPEDTAVYYCAAEAVRKVPSYYSYAYYYWGQGTQVTVSS | high polyreactivity
QVHLEESGGGLVQAGGSLRLSCAASGFTFHNNVMGWYRQAPGKERELVATISKSGGSTYYADSVKGRFTISRDNAKNPVYLQMKSLKPEDTAVYYSARRYRDYRRYAYWGQGTQVTVSS | high polyreactivity
QVHLEESGGGLVQAGGSLRLSCAASGRTFYANTMGWYRPAPGKERELVAGITSGGSTSYADSVKGRFTISRDNAKNTVYLQMNSLKPEDTAVYYCAAQFYRYTATGYYADGYWGQGTQVTVSS | low polyreactivity
QVHLGESGGGLVQAGGSLRLSCAASGSTFDRNVIGGYRQAPGKERELVAAISRVSSTNYADSVKGRFTISRDNAKNTVYLQMNSLKPEDTAVYYCAADRAGSIMNYWGQGTQVTVSS | low polyreactivity
QVHLGETGGALVQAGGRLRLSCAASGITLGAYAMGWYRQAPGKERELVARIRIGGSTYYADSVKGRFTISRDYAKNTVFLQMNSLKPEDTAVYYCNALYRYLYRSGDYWGQGTQVTVSS | low polyreactivity
QVHLLESGGGLVQAGGSLRLICAASGRILYPYALVWYRQAPGKETELVAAITFRGGNTYYADSVKARFTLSRDYAKNTVYLQMNSMKPEDTAVYFCAARKSPRSQVRGRSYYWGQGSQVTVSS | high polyreactivity
QVHLQDSGGGLVQAGGSLRLSCAASCYISDVNDMGWYRQAPGKEREFVAGIGYGGITNYADSVKGRFTISRDNAQNTVYQHMNSLKPKDTAVYNCAVHWGPDSGLYYWGQGTQVTVSS | high polyreactivity
QVHLQDSGVGLVQAGGSLRLSCAASGSIFGSGSMGWFRQAPGKERELVATINNGSSTYYADSVKGRFTISRDNAKNTVYLQMNSLKPEDTAVYYCAVYLYRLTFFYYWGQGNQVTVSS | high polyreactivity
QVHLQESGGGLVKAGGSLRLSCAASGTISPLPAMCWYRQAPGKEREFVAGIDTGAITNYADSVKGRFTISRDNAKNTVYLQMNSLKPEDTAVYYCAFFPAAYDYYERYYTYWGQGTQVTVSC | low polyreactivity
QVHLQESGGGLVQAGGSLRLSCAASGTIFRFRYMGWHRQAPGKERELVAGINGGTTTYYADSVIGRFTISRDNAKNTVYLQMNSLKPDDTAVYNCAAGASRLTYYDFWGQGTQVTVSS | low polyreactivity
